In test [1] the target is His-KLP64DS (6xHis-tagged KLP64D stalk) (Drosophila) (UniProt Q9VRK9). The experiment in a line: SEC; affinity purified heterodimer on HiLoad 16/60 Superdex 75 pg in 20 mM Tris-Cl pH 7.5, 5 mM MgCl2, 500 mM NaCl, 2.5 mM DTT, 1 ml/min; fractions on SDS-PAGE, band intensities compared.
For test [2], the target named is His-KLP68DS (6xHis-tagged KLP68D stalk) (Drosophila). The description is as above.

The values that follow come from PMC3461054.

Regarding “KLP68DS (KLP68D stalk, untagged) (domain or fragment)”, in test [1], the stoichiometry N – broadly, a count of units in the complex or per binding partner – worked out at 1.

B1: KLP64DS (KLP64D stalk, untagged) (domain or fragment)
chain: PKKKREKTDAEKEELAKRKNEHQKEIEHAKTEQETLRNKLVSLEGKILVGGENLLEKAQTQELLLEQSIAELEQHEKSEEALKQTLQQKATERIDIEERYSTLQDASTGITKKIHRVMQMLMGVKSELADQQQEHQREKEGIYENIRSLSRELALCELVLNSYVP
Molecule B1 yielded a stoichiometry N in test [2] of 1.
